Results on 40 sequences are retold here after the nanobody polyreactivity screen of Harvey et al. (2022).

The data set in a line: yeast display, Sf9 membrane polyspecificity reagent, FACS + sequencing; frameworks hold sequencing errors. The method in brief: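 A nanobody's polyreactivity label depends on the gate it was sorted from. Yeast display cells were stained with 10% biotinylated, detergent-solubilized Sf9 membrane reagent for 1 hour at 4 °C, enriched on streptavidin microbeads and sorted by FACS. The low and high (top ~1%) gates were set on anti-HA fluorescence for expression and streptavidin fluorescence for reagent binding.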
As for “QVQLVESGGGLVQAGGSLRLSCAASGRTFAIYAMGWYRQAPGKERELVAGITIRGGRTYYADSVKGRFTISRYIAKNTVYLQMNSLKPEDTAVYYCNARGWYEYGWGQGTQVTVSS”, the “polyreactivity (PSR sort gate)” value was “high polyreactivity”.

As for “QVQLVESGGGLVQAGGSLRLSCAASGRTFAKYAMGWSRPAPGKERELVAAIRWSGGSTYYADSVKGRFTISRDNAKNTVYLQMTSLKPEDTAVYYCATERFVLGLGYDYWGQGTQVTVSS”, the “polyreactivity (PSR sort gate)” value is “high polyreactivity”.

As for “QVQLVESGGGLVQAGGSLRLSCAASGRTFAKYAMGWYRQAPGKERELVAAIRWSGGSTYYADSVKGRFTISRDNAKNTVYLQMNSLKPEDTAVYYCAARPALWGRYRGYDYWGQGTQVTVSS”, the “polyreactivity (PSR sort gate)” value was “high polyreactivity”.

As for “QVQLVESGGGLVQAGGSLRLSCAASGRTFAKYAMGWYRQAPGKERELVAAISDSGGSTYYADSVKGRFTISRDNAKNTVYLQMNSLKPEDTAVYYCAADGRYTYYWGQGTQVTVSS”, the “polyreactivity (PSR sort gate)” value was “high polyreactivity”.

Turning to “QVQLVESGGGLVQAGGSLRLSCAASGRTFAKYAMGWYRQAPGKERELVASISGRGTNTYYADSVKGRFTISRDNAKNTVYLQMNSLKPEDTAVYYCAATYVYPYRDSHYYYWGQGTQVTVSS”, the “polyreactivity (PSR sort gate)” value is on record as “high polyreactivity”.

As to “QVQLVESGGGLVQAGGSLRLSCAASGRTFAKYGMGWYIQAPGKERELVAAIDYSGGSTYYADSVKGRFTISRDNAKNTVYLQMNSLKPEDTAVYYCAADYFWLYYSEYGYWGQGTQVTVSS”, the “polyreactivity (PSR sort gate)” value was “low polyreactivity”.

“QVQLVESGGGLVQAGGSLRLSCAASGRTFALNAMGWYRQAPGKERELVAAISWSSGRTYYADSVKGRFTISRDNAKNTVYLQMNSLKPEDTAVYYCAALVAHKGDYWGQGTQVTVSS”: the “polyreactivity (PSR sort gate)” value is given as “high polyreactivity”.

Regarding “QVQLVESGGGLVQAGGSLRLSCAASGRTFALYAMGWYRHAPGKERELVASISWRGGSTYYADSVKGRFTISRDNAKNTVYLQMNSLKPEDTAVYYCAADTWSYGPLNYRLEYWGQGTQVTVSS”, the “polyreactivity (PSR sort gate)” value is recorded as “low polyreactivity”.

In the case of “QVQLVESGGGLVQAGGSLRLSCAASGRTFALYAMGWYRQAPGKERELVATITFIGDSTYYADSVKGRFTISRDNAKNTVYLQMNCLKPVDTAVYYCNATYGPYYPGIVTYIWFDHWGQGSQVTVSS”, the “polyreactivity (PSR sort gate)” value is “low polyreactivity”.

On to “QVQLVESGGGLVQAGGSLRLSCAASGRTFANNAMGWYRQAPGKERELVARISNSGSTNYADSVKGRFTISRDNAKNTVYLQMNSLKPEDTAVYYCAARIVRLYSRYDYWGQGTQVTVSS”, for which the “polyreactivity (PSR sort gate)” value is given as “low polyreactivity”.

As to “QVQLVESGGGLVQAGGSLRLSCAASGRTFANYAMGWYRQAPGKERELVAAITSGGRTYYADSVKGRFTISRDNAKNTVYLQMNSLKPEDTAVYYCAADYTYDYQNDYWGQGTQVTVSS”, the “polyreactivity (PSR sort gate)” value is “high polyreactivity”.

“QVQLVESGGGLVQAGGSLRLSCAASGRTFAPNAMRWSRQAPGKERELVARITWSGTDTYYADSVKGRFTISRDNAKNTVYLQMNSLKPEDTAVYYCAADARYSRRYYYWGQGTQVTVSS”: the “polyreactivity (PSR sort gate)” value is given as “low polyreactivity”.

For the sequence “QVQLVESGGGLVQAGGSLRLSCAASGRTFAPNTMGWYRQAPGKERELVATISSGGSTNYADSVKGRFTISRDNAKNTVYLQMNSLKPEDTAVYYCAARYRIVYRSHWGFTSYDYWGQGTQVTVSS”, the “polyreactivity (PSR sort gate)” value is on record as “low polyreactivity”.

As for “QVQLVESGGGLVQAGGSLRLSCAASGRTFAPYAMGWYRQAPGKERELVAAITSGGSTYYADSVKGRFTISRDNAKNTVYLQMNSLKPEDTAVYYCAAKFVGTTVSEYGYWGQGTEVTVSS”, the “polyreactivity (PSR sort gate)” value is on record as “low polyreactivity”.

Take “QVQLVESGGGLVQAGGSLRLSCAASGRTFAPYAMGWYRQARGQERELVATITRTGRTNYADSVKGRFTISRDNAKNTVYLQMNSLKPEDTAVYYCAAYTYYGFYYWGQGTQVTVSS”: the “polyreactivity (PSR sort gate)” value was “high polyreactivity”.

Take “QVQLVESGGGLVQAGGSLRLSCAASGRTFAPYAMVWYRQAPGKERELVAAITYSGGSTYYADSVKGRFTISRDNAKNTVYLQMNSLIPADTAVYYCAADSDYDPYDYWGQGTQVTVSS”: the “polyreactivity (PSR sort gate)” value is “low polyreactivity”.

For “QVQLVESGGGLVQAGGSLRLSCAASGRTFARHVMGWYCQAPGKVRELVAGITTSGGSTYYADSVKGRFTISRDNPKNTGYFQMNSLKPEDTAVYYCATDRQRYYRTVRSPIFNYWGQGTQVTVSS”, the “polyreactivity (PSR sort gate)” value is given as “high polyreactivity”.

Regarding “QVQLVESGGGLVQAGGSLRLSCAASGRTFARNVMGSYRQAPGKERELVAAIRGSGGSTYYADSVKGRFTISRDNSKNTVYLQMNSLKPEDTAVYYCAADSSYTKRYSPTKLHFEYWGQGTQVTVSS”, the “polyreactivity (PSR sort gate)” value is given as “high polyreactivity”.

With “QVQLVESGGGLVQAGGSLRLSCAASGRTFARYAIGWSRQAPGKERELVAAITRRGGSTYYADSVKGRFTLSRDNAKNTVYLQMNSLKPEDTAVYYCAAHYPNFGIGAYEYWGQGTQVTVSS”, the “polyreactivity (PSR sort gate)” value is recorded as “high polyreactivity”.

For “QVQLVESGGGLVQAGGSLRLSCAASGRTFARYAMGWYRQAPGKERELVASIRRGTSTNYADSVKGRFTISRDNAKNTVYLQMNSLKPEDTAVYYCAARVGTEGYHGDYWGQGTQVTVSS”, the “polyreactivity (PSR sort gate)” value is listed as “high polyreactivity”.

As for “QVQLVESGGGLVQAGGSLRLSCAASGRTFARYTMGWYRQAPGKERELVAAITSGGGSTYYADSVKGRFTISRDNAKNTVYLQMNSLKPEDTAVYYCNARRYYYITGRYGYWGQGTQVTVSS”, the “polyreactivity (PSR sort gate)” value is “high polyreactivity”.

With “QVQLVESGGGLVQAGGSLRLSCAASGRTFASNDMGWYRHAPGNERELVAGITGSGGSTYYADSVKGRFTISRDNAKNTVYLQMNSLKPEDTAVYYCAADRSRGYGYDYWGQGTQVTVSS”, the “polyreactivity (PSR sort gate)” value was “low polyreactivity”.

“QVQLVESGGGLVQAGGSLRLSCAASGRTFASYAMGWYRKAPGKETELVATISSGDSTYADSVKGRFTISRDNAKITVYLQRNRLKPEDTAVYYCAAASDLPGTCGYDYWGQGTQVTVSS”: the “polyreactivity (PSR sort gate)” value was “low polyreactivity”.

“QVQLVESGGGLVQAGGSLRLSCAASGRTFASYTMGWYRQAPGKERELVAAITRGGSTNYADSVKGRFTISRDNAKNTVYLQMNSLKPEDTAVYYCAARFSRSFGYNYWGQGTQVTVSS”: the “polyreactivity (PSR sort gate)” value is on record as “high polyreactivity”.

As for “QVQLVESGGGLVQAGGSLRLSCAASGRTFASYTMGWYRQPPGKESELVAAINARGGNTYYADSVKGRFTISRDNAKNTVYLQMNSLKPEDTAVYYCAARQKRFKVAAGYDYWGQGTQVTVSS”, the “polyreactivity (PSR sort gate)” value is “high polyreactivity”.

For the sequence “QVQLVESGGGLVQAGGSLRLSCAASGRTFAWYAMGWYRQAPGKERELVAAISSSGGTTYYADSVKGRFTISRDNAKNTVYLQMNSLKPEDTAVYYCAARPGFWEYWGWWYDRYEYWGQGTQVTVSS”, the “polyreactivity (PSR sort gate)” value is “low polyreactivity”.

On to “QVQLVESGGGLVQAGGSLRLSCAASGRTFAYNAMGWYRQAAGKVRELVASITSGGSTNYADSVKGRFTISRDNAKNTVYLQMNSLKPEDTAVYYFIKDGKYHRVLYEYWGQGTQVTVSS”, for which the “polyreactivity (PSR sort gate)” value is recorded as “low polyreactivity”.

Regarding “QVQLVESGGGLVQAGGSLRLSCAASGRTFAYNAMGWYRQAPGKERELVAGITGGNSRTYYADSVKGRFTISRDNAKNTVYLQMNSLKPEDTAVYYCARRFYKGTSKTNLFDYWGQGTQVTVSS”, the “polyreactivity (PSR sort gate)” value is listed as “high polyreactivity”.

With “QVQLVESGGGLVQAGGSLRLSCAASGRTFAYNAMGWYRQAPGKERELVASITSGGSTNYSDSVKGRFTISRDNAKNTVYLQMNSLKPEDTAVYYCNKDGKYHRVLYDYCGQGTQVTVSS”, the “polyreactivity (PSR sort gate)” value is “low polyreactivity”.

Turning to “QVQLVESGGGLVQAGGSLRLSCAASGRTFAYYAMGWYRQAPGKERELVAAIRRSGRTNYADSVKGRFTISRDNAKNTVYLQMNSLKQEDTAVYYCAADYWQGDLRYDYWGQGTQVTVSS”, the “polyreactivity (PSR sort gate)” value is “low polyreactivity”.

Regarding “QVQLVESGGGLVQAGGSLRLSCAASGRTFAYYAMGWYRQAPGKERELVAAISSSGGITYYADSVKGRFTISRDNAKNTVYLQMNSLKPEDTAVYYCATPRARTRLRYYWGQGTQVTVSS”, the “polyreactivity (PSR sort gate)” value is listed as “high polyreactivity”.

Regarding “QVQLVESGGGLVQAGGSLRLSCAASGRTFAYYAMGWYRQAPGKERELVAAITLRSGSTYYADSVKGRFTISRDNAKNTVYLQMNSLKPEDTAVYYCATDSLGVDRPNYNYWGQGTQVTVSS”, the “polyreactivity (PSR sort gate)” value was “low polyreactivity”.

As to “QVQLVESGGGLVQAGGSLRLSCAASGRTFAYYAMGWYRQAPGKERELVAAITTSGTRTYYADSVKGRFTISRDTAKNTVYLQMNSLKPEDTAVYSCAARYRYQYEFDYWGQGTQVTVSS”, the “polyreactivity (PSR sort gate)” value is listed as “high polyreactivity”.

For the sequence “QVQLVESGGGLVQAGGSLRLSCAASGRTFAYYAMGWYRQAPGKERELVATISWTTGSTYYADSVKGRFTISRDNAKNTVYLQMNSLKPEDTAVYYCNKRYNNPYWYPGRYPYDYWGQGTQVTVSS”, the “polyreactivity (PSR sort gate)” value was “high polyreactivity”.

Consider “QVQLVESGGGLVQAGGSLRLSCAASGRTFCIYAMGWYIQAPGKEREFVAAISSSGGGTYYADSVKGRFTISRDNAKNTVYLQMNSLKPEDTAVYYCAADDGYSSNEYDYWGQGTQVTVSS”, for which the “polyreactivity (PSR sort gate)” value was “low polyreactivity”.

“QVQLVESGGGLVQAGGSLRLSCAASGRTFCLNAMGWYRQAPGKERELVAAISKSDDSTYYADSVKGRFTISRDNAKNTVYLQMNSLKPEDTAVYYCNADYYGWWYDTDYIGGYDYDYWGQGTQVTVSS”: the “polyreactivity (PSR sort gate)” value was “low polyreactivity”.

In the case of “QVQLVESGGGLVQAGGSLRLSCAASGRTFDGNAMGWYRQAPGKERELVAAISKRGGTTYYADSVKGRFTISRDKAKNTVYLQMTSLKPEDTAVYYCAAPYNTYSYSEGEYWGQGTQVTVST”, the “polyreactivity (PSR sort gate)” value is given as “low polyreactivity”.

With “QVQLVESGGGLVQAGGSLRLSCAASGRTFDGNTMGWYRQAPGKERELVAAITKRGGSTYYADSVKGRFTISRDNAKNTVYLQMNSLKPEDTAVYYCNAVWRNWYARVDEYDYWGQGTQVTVSS”, the “polyreactivity (PSR sort gate)” value is reported as “high polyreactivity”.

On to “QVQLVESGGGLVQAGGSLRLSCAASGRTFDGYAMGWSRQAPGKERELVAAINRSGGNTYYADSVKGRFTISRDNAKNTVYLQMNSLNPVDTAVYYCAADGWTSIGVPDYQHDYWGQGTQVTVSS”, for which the “polyreactivity (PSR sort gate)” value was “high polyreactivity”.

Turning to “QVQLVESGGGLVQAGGSLRLSCAASGRTFDGYAMGWYRQAPGKERELVASINGGGSTNYADSVKGRFTISRDNAKNTVYLQMNSLKPEDTAVYYCAAESKGTWHYLYTSPHYYWGQGTQVTVSS”, the “polyreactivity (PSR sort gate)” value is “low polyreactivity”.
